Laboratory results taken from patent US20140004136A1 (CENTRE NATIONAL DE LA RECHERCHE SCIENTIFIQUE, published 2014).

How the values were obtained:
[1] = molecular target: T1, murine major histocompatibility complex class II molecule I-A^d (murine, UniProt P04228 24-218; P01921 28-226, limits assumed); experiment: competition with reference peptides on transfected fibroblasts, IL-2 secretion of T hybridoma 26.2
T1 construct: whole, on cells;extracellular; Expressed on transfected fibroblasts
T1 sequence (MHC II alpha, looked up): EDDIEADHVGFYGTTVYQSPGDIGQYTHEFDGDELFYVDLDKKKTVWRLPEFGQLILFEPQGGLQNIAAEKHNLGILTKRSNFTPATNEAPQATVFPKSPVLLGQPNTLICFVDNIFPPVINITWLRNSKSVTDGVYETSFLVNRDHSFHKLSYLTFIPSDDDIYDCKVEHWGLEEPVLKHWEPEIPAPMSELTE
T1 sequence (MHC II beta, looked up): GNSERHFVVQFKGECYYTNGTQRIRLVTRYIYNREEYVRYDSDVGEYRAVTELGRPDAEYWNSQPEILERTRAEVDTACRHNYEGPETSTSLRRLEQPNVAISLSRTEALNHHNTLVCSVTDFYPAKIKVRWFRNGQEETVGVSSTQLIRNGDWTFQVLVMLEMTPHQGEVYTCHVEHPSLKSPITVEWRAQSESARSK

[2] = molecular target: T2, murine major histocompatibility complex class II molecule I-E^d (murine, UniProt P01904 26-216; P01915 32-225, limits assumed); experiment: competition with reference peptides on transfected fibroblasts, IL-2 secretion of T hybridoma 26.1
T2 construct: whole, on cells;extracellular; Expressed on transfected fibroblasts
T2 sequence (MHC II alpha, looked up): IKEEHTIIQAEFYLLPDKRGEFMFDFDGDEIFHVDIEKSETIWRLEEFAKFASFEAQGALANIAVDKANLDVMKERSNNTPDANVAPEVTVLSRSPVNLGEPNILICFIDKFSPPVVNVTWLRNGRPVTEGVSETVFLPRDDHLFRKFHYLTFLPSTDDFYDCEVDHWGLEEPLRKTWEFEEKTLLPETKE
T2 sequence (MHC II beta, looked up): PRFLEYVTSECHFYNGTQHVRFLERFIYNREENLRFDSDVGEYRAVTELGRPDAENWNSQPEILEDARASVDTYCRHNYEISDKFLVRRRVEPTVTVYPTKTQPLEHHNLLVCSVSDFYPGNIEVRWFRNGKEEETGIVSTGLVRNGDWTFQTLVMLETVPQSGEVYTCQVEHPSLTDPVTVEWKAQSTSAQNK

[3] = molecular target: T3, murine major histocompatibility complex class II molecule I-A^k (murine, UniProt P01910 24-218; P06343 28-224, limits assumed); experiment: competition with reference peptides on transfected fibroblasts, IL-2 secretion of T hybridoma E7E9
T3 construct: whole, on cells;extracellular; Expressed on transfected fibroblasts

Measured: binding result

B1: 131-151 peptide of the U1-70K protein (RIHMVYSKRSGKPRGYAFIEY) (peptide)
peptide: RIHMVYSKRSGKPRGYAFIEY
notes: Synthetic peptide; also called parent peptide; non-phosphorylated peptide
binds: all assays above
